# Data published in patent US20100166708.
# T1: tumor necrosis factor receptor (TNFR)-associated factor 1, Q13077
# T1 chain: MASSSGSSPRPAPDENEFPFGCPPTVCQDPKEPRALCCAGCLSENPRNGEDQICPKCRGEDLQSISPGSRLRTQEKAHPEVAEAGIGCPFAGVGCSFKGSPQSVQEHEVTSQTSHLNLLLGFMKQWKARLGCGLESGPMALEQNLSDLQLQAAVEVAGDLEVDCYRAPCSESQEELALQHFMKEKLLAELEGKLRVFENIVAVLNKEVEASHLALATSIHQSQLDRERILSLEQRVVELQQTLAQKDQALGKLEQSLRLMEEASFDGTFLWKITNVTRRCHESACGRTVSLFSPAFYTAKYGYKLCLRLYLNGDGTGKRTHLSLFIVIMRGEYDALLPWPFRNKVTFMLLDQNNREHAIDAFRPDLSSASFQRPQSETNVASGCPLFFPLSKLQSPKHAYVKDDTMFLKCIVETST
# B1: caspase 8 (protein)
# chain: MDFSRNLYDIGEQLDSEDLASLKFLSLDYIPQRKQEPIKDALMLFQRLQEKRMLEESNLSFLKELLFRINRLDLLITYLNTRKEEMERELQTPGRAQISAYRVMLYQISEEVSRSELRSFKFLLQEEISKCKLDDDMNLLDIFIEMEKRVILGEGKLDILKRVCAQINKSLLKIINDYEEFSKERSSSLEGSPDEFSNGEELCGVMTISDSPREQDSESQTLDKVYQMKSKPRGYCLIINNHNFAKAREKVPKLHSIRDRNGTHLDAGALTTTFEELHFEIKPHDDCTVEQIYEILKIYQLMDHSNMDCFICCILSHGDKGIIYGTDGQEAPIYELTSQFTGLKCPSLAGKPKVFFIQACQGDNYQKGIPVETDSEEQPYLEMDLSSPQTRYIPDEADFLLGMATVNNCVSYRNPAEGTWYIQSLCQSLRERCPRGDDILTILTEVNYEVSNKDDKKNMGKQMPQPTFTLRKKLVFPSD
# Biological target: T1, tumor necrosis factor receptor …
protein,measurement,value
B1,"cleavage of TRAF1 to N-terminal TRAF1 (western blot, normal human keratinocytes)","The overexpression of TRIF caused caspase 8-dependent cleavage of TRAF1 to release N-terminal TRAF1 (N-TRAF1) (FIG. 14e), which was prevented by caspase 8 inhibitor (FIG. 14f)"
